B1: H1-Ab51 (antibody, V domains shown)
VH: EVQLVESGPGLVKPSETLSLTCTVSGGSISSNTYYWGWIRQPPGKGLEWIETIYYSGSTYYNPSLKSRVTISVDTSKNQFSLKLSSVTAADSAVYYCARSYCGGGCNFDAFDIWGQGTVVTVSS
VL: QSVLTQPASVSGSPGQSITISCTGSSSDVGGYNYVSWYQQHPGKAPKLMIFDVSNRPSGVSNRFSGSKSGNTASLTISGLQAEDEADYYCSSYTSNITLVFGGGTKLTVL
B2: H1-Ab33 (antibody, V domains shown)
VH: EVQLVESGGGLVQPGGSLRLSCAASGFTFSSYAMSWVRQAPGKGLEWVSGINAGGGSTFYADSVKGRFTISRGNSKNTLYLQMHSLRAEDTAIYYCAKDQGNAIFGLVIPSYYFDYWGQGTLVTVSS
VL: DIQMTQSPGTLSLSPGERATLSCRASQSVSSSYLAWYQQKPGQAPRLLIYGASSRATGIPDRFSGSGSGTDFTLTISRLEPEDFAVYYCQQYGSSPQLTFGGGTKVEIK
B3: H1-Ab37 (antibody, V domains shown)
VH: LVQLVESGGGLVQPGGSLRLSCAASGFTFSSYAMSWVRQAPGKGLEWVSGINAGGGSTFYADSVKGRFTISRDNSKNTLYLQMHSLRAEDTAIYYCAKDQGNAIFGLVIPSYYFDYWGQGTLVTVSS
VL: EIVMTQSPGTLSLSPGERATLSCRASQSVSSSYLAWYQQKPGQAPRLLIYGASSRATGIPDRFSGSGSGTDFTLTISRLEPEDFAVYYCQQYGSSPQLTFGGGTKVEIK
B4: H7-Ab1 (antibody, V domains shown)
VH: EVQLVQSGAEVKKPGASVKVSCKTSYAMHWVRQAPGQRLEWMGWINAGNGYTKYSPKFQGRVTFTWDTSASTAYMELNSLRSEDTAVYYCAHGSGSYLNWFDPWGQGTLVTVSS
VL: QSVLTQPASVSGSPGQSITISCTGTSSDVGGYNYVSWYQQHPGKAPKLMIYEVSNRPSGVSNRFSGSKSGNTASLTISGLQAEDEVDYYCTSYTSSSTLVAFGRGTKLTVL
B5: H7-Ab4 (antibody, V domains shown)
VH: EVQLVESGAEVKKPGSSVKVSCKASGGTFSSHGINWVRQAPGQRLEWMGGINPISGTPHYAQKFQGRVTITADESTTTSYMELSSLRSEDTAVYYCARIHRAGLEANYWGQGTLVTVSS
VL: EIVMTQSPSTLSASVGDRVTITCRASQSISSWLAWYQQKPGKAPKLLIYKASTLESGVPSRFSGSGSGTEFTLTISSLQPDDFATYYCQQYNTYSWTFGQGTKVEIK
B6: H7-Ab12 (antibody, V domains shown)
VH: EVQLVESGPGLVKPAQTLSLTCTVSGGSISSGGDYWSWIRQHPGKGLEWIGYIYYSGNAFYNPSLKSRVSMSVDTSKNQFSLKLSSVSAADTAVYYCARVRGVYFWGQGTLATVSS
VL: EIVMTQSPGTLSLSPGERATLSCRASQSVSSSHLAWYQQKPGQAPRLLIYGASSRATGIPDRFSGSGSGTDFTLTISRLEPEDFAVYYCQQYGSSLPPWTFGQGTKVEIK
B7: H1-Ab23 (antibody, V domains shown)
VH: EVQLVESGGGLVKPGGSLRLSCAASGFTFSSYSMHWVRQAPGKGLEWISSISSTGNYIYYADSVKGRFTISRDNARNSLYAQLNSLRAEDTAVYYCATGVTSSYGGHPGYFDSWGQGTLVTVSS
VL: DIRMTQSPSSLSASVGDRVTITCQASQDISKYLNWYQQKPGKAPKVLIYDASNLETGVPSRFSGSRSGTDFTFTISRLQPEDIGTYYCQQYDDPFLTFGGGTKVEIK
B8: H1-Ab19 (antibody, V domains shown)
VH: EVQLVESGGGLVKPGGSLRLSCAASGFTFSSYSMHWVRQAPGKGLEWVSSISSIGTYIYYADSVKGRFTISRDNAKNSLYLQLNSLRVEDTAVFYCATGVTSSYGGYSGYFDSWGQGTLVTVSS
VL: DIVMTQSPSSLSASVGDRVTITCQASQDISKHLNWYQQKPGKAPKLLIYDASNLETGVPSRFSGSGSGTDFSFTISSLQPEDIATYYCQQYDNPFLTFGGGTKVEIK
notes: IgG1; source: HEK293T, transfected with heavy and light chain plasmids; purified mAbs
B9: H7-Ab7 (antibody, V domains shown)
VH: QVQLQESGGGLVQPGGSLRLSCAASGFTFSAYAMNWVRQAPGKGLDWVSGIGGNGGITKYADSVKGRFTISRDNSKKTLYLQMNSLTAEDTAVYYCAKDASWDVRGWFDPWGQGTLVTVSS
VL: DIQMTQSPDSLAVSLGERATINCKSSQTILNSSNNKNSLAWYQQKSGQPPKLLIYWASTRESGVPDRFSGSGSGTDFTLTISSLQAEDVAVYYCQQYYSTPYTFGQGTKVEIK
B10: H7-Ab14 (antibody, V domains shown)
VH: EVQLVESGPRLVKPSGTLSLTCAVSDDSISSAGYYWGWIRQSPGKGLEWIAAFFFGGSAYYNPSLKSRLTISTDTSENQFSLSLASVTAADTAVYYCAVIQLSTPPVPFEIWGQGTLVTVSS
VL: EIVMTQSPGTLSLSPGERATLSCRASQIISSNYLAWYQQKPGQAPRLLIFGASSRATGTPDRFSGSGSGTDFTLTISRLEPEDFVVYYCHQYDSSWYTFGQGTKVEIK
B11: H1-Ab38 (antibody, V domains shown)
VH: EVQLVESGGGVVQPGRSLRLSCAASGFTFSSNAMHWVRQAPGKGLEWVAVISSDGSSKYYADSVKGRFTISRDNSKNTLFLQMNSLRADDTAIYYCARRYDGFDYWGQGSLVTVSS
VL: QSVLTQPASVSGSPGQSITISCTGTSSDVGSYNLVSWYQQHPGKAPKLMIYEVNKRPSGVSNRFSGSKSGNTASLTISGLQAEDEADYHCCSYAGSYTYVFGGGTKLTVL
B12: H7-Ab3 (antibody, V domains shown)
VH: EVQLVESGAEVKKPGSSVKVSCKTSGGTFNIYAINWVRQAPGQGLEWMGMIIPIFGSPKTAREFQDRLTIDADTSTSTAYMELSNLTSEDTATYFCSRVADDYDFWSPNKFWGQGTLVTVSS
VL: DIQLTQSPSTLSASVGDTVTITCRASQSVNSWLAWYQQKPGKAPKLLIYKTFNLETGVPSRFSATGSGTEFTLTISRLQPDDFATYYCQQYNSNSHFGQGTKVEIK
B13: H1-Ab61 (antibody, V domains shown)
VH: EVQLLESGAEVKKPGESLKISCKTSGYTFPRYWVGWVRQMPGKGLEWMGFIYPGDATTRYSPSFQGQVTISADKSINTAYLHWSSLKASDTAVYFCARHPGDKSFYYYGLDVWGQGTTVTVSS
VL: AIRMTQSPSTLSASVGDRVTITCRASQSIRSWLAWYQQKPGKAPKLLISKASSLQSGVPSRFSGTGSGTEFTLTISSLQPDDFATYYCQQYNSDSITFGQGTRLEIK
B14: H7-Ab10 (antibody, V domains shown)
VH: WVQLVESGGGLVQPGGSLRLSCVDSGSTFSKYWMTWVRQAPGKGLEWVANIKEDGSKEYYMESLKGRFTISRDNAKNSLYLQISTLRAEDTAVYYCATSSGWRFEVWGRGTTVTVSS
VL: QSALTQPPSASGSPGQSVTISCTGTSSDVGTYNYVSWYQQQADKAPKLIIFDVDKRPSGVPDRFSGSKSGNTASLTVSGLQADDEADYYCSSYAGTKHWIFGGGTKLTVL
B15: H7-Ab8 (antibody, V domains shown)
VH: EVQLVQSGGGVVLPGRSLRLSCAASGFTFSNHGMHWVRQAPGKGLEWMAVIWSDGTTKYYADSVKGRFTISRDNSKNTVYLQMNSLRAEDTAVYYCAREVIYSGYFFDHWGQGTTVTVSS
VL: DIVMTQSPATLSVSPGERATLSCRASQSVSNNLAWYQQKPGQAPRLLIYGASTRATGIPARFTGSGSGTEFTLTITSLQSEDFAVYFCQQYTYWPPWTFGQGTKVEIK
B16: H7-Ab6 (antibody, V domains shown)
VH: EVQLVESGGGLVKPGGSLRLSCTASGFTFSDYPMSWVRQAPGKGLEWLSSISTGSTYIYYADSVKGRFTISRDNAQNSMYLQMNSLRAEDTAIYYCARGAKVELALGWYFDLWGRGTLVTVSS
VL: QSVLTQPPSVSAAPGQKVTISCSGSNSNIGNNFVSWYQQLPGTAPKLLIYDNNKRPSGIPDRVSGSKSGTSATLGITGLQTGDEADYYCGTWDNRLSAAVFGGGTKLTVL
B17: H1-Ab18 (antibody, V domains shown)
VH: EVQLVESGGGLLKPGGSLRLSCAASGFTFNNAWMSWVRQPPGKGLEWVGRIKSESDDETPDYAAPVKGRFDISRDDSKNMLYLQMSSLKTEDTAVYYCATDHSSHYYDRPDYWGQGTLVTVSS
VL: QSVLTQSPSASASLGASVKLTCILSSGHSDYAIAWHQQQPEKGPRYLMKLNIDGSHSKGDGIPDRFSGSTSGAERYLTISSLQSEDEADYYCQTWDTGIHVFGGGTRLTVL
B18: H1-Ab53 (antibody, V domains shown)
VH: EVQLVESGLRLVKPSETLSVTCTVSGGSMSTTSYYWGWIRQPPGKALEWIGSIYYDGNSYYKPSLRSRFTMLVDTSKNQFSLKLTSVTAADTAVYYCARMSYMDYDFSTGYWNWFDPWGQGTLVTVSS
VL: QSVLTQPASVSGSPGQSITISCTGTRRDVGSYRLVSWYQHHPGKAPKLMIYEGTKRPSGVSDRFSGSKSGNTASIIISGFQAEDEADYYCCSYAGSSTWVFGGGTRVTVL
B19: H1-Ab26 (antibody, V domains shown)
VH: EVQLVQSGGGLVQPGSSLRLSCAASGFTFSNFAMSWVRQAPGKGLEWVSTINAGSGSKDYANSVKGRFTISRDNTKNTLYLQMKSLRAEDTAVYYCAKDTGHTIFGVVRPYYNGMDVWGQGTTVTVSS
VL: DNQMTQSPLSLPVTLGQPASISCRSSQSLVYSDGNTYLNWFQQRPGQSPRRLIYKVSNRDSGVPDRFSGSGSGTDFTLKISRVEAEDVGVYYCMQGTHPYTFGQGTKVEIK
B20: H1-Ab27 (antibody, V domains shown)
VH: EVQLVQSGGGLVQPGSSLRLSCAASGFTFSNFAMSWVRQAPGKGLEWVSTINAGSGSKDYANSVKGRFTISRDNTKNTLYLQMKSLRAEDTAVYYCAKDTGHTIFGVVRPYYNGMDVWGQGTTVTVSS
VL: EIVMTQSPGTLSLSPGERATLSCRASQSVSSSYLAWYQQKPGQAPRLLIYGASSRATGIPDRFSGSGSGTDFTLTITRLEPEDFAVYYCQQYGGSPMYTFGQGTKVEIK
B21: H7-Ab11 (antibody, V domains shown)
VH: QVQLQESGPRLVKPSQTLSLTCAVSGGSITSNDYNWSWIRQHPGKGLEWIGYIYHSGNTFYNPALESRVSMSVDTSKNQFSLRLTSVTAADTAVYFCARTQRSTVAHIVGPVQGRFHFDYWSQGTLVTVSS
VL: DIQMTQSPGTLSLSPGERVTLSCRASRSVSPYYLAWYQQKPGQAPRLLIYGSSTRATGIPDRFSGSGSGTDFTLTINKLEPEDFAIYYCQQYGRSSGFVFGPGTKVDIK
B22: H7-Ab5 (antibody, V domains shown)
VH: EVQLVESGAEMRKPGSSVKVSCKASGGTFNTYGISWVRQAPGQGLEWMGGIIPMFGTENHAQKFQGRVTITADKSTSIAYMELSSLTSEDTAVYYCARAPVVGSRNVYYYHGLDVWGQGTTVTVSS
VL: SYELTQPPSVSVSPGQTARITCSGDALPKRYAFWYQQKPGQAPVLVIYKDTERPSGIPERFSGSRSGTTVTLTISGVQAEDEGDYYCQSADSSDPCLFGGGTKLTVL
B23: H7-Ab13 (antibody, V domains shown)
VH: EVQLVESGPGLVKPSQTLSLTCTVSDGTIGSDAYHWSWIRQYPGRGLEWIGSFYYSGNTYYNPSLKSRLTISVDTSKNQFSLKLNSVTAADTAVYYCARNSAYCTDTRCYNGGGWFHPWGQGTTVTVSS
VL: DIVMTQSPGTLSLSPGERATLSCRASQSVSSTYLAWYQQKPGQAPRFLIYGASRRATGIPDRFSGSGSGTDFTLTISRVEPEDFTVYYCQQYGSSPITFGQGTRLEIK

How the values were obtained:
[1] = molecular target: T1, H1N1 HA (A/California/04/2009) (Influenza A virus A/California/04/2009 …, UniProt C3W5S1, strain)
[2] = molecular target: H7N9 HA (A/Shanghai/1/2013) (Influenza A virus A/Shanghai/1/2013 …, strain)
[3] = molecular target: T1, H1N1 HA (A/California/04/2009); assay: SPR; details: both partners purified

Binder	binding result [1]	binding result [2]	also measured
B1	binds	–	–
B2	binds	–	–
B3	binds	–	–
B4	–	binds	–
B5	–	binds	–
B6	–	binds	–
B7	binds	–	–
B8	–	–	Kd [3]: 1 pM
B9	–	binds	–
B10	–	binds	–
B11	binds	–	–
B12	–	binds	–
B13	binds	–	–
B14	–	binds	–
B15	–	binds	–
B16	–	binds	–
B17	binds	–	–
B18	binds	–	–
B19	binds	–	–
B20	binds	–	–
B21	–	binds	–
B22	–	binds	–
B23	–	binds	–

— paper PMC5551578 (The Journal of Experimental Medicine, 2017)
